The record followed here is the supplement of paper PMC10567573.

First the molecules themselves.
B1: MAGEA6 (parent)
chain: KISGGPRISYPLLHEWALREGEE
B2: SLC35F2 (parent)
chain: SFMPLVIKVTSATSVNLGILTADL
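Note: lentivirally expressed fusions sorted by FACS into six bins by GFP to DsRed ratio, PSI derived from sequencing read proportions per bin multiplied by bin number.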

Variants of B1 are the subject of the first data set. The experiment in a line: protein stability index of a GFP-peptide fusion (GPS, HEK-293T) (PSI 1-6); higher = more stable. The note with it: c terminus: native.
As for KISGGPRISYPLYHEWALREGEE [L13Y], the protein stability index came out at 1.19.
With KISGGPRISYPLWHEWALREGEE [L13W], the protein stability index is 3.38.
Turning to KISGGPRISYPLMHEWALREGEE [L13M], the protein stability index worked out at 1.77.
As for KISGGPIISYPLLHEWALREGEE [R7I], the protein stability index stood at 4.03.
Take KISGGPPISYPLLHEWALREGEE [R7P]: the protein stability index worked out at 2.65.
On to KISGGPLISYPLLHEWALREGEE [R7L], for which the protein stability index was determined as 1.92.
Same read-out and setting: to KISGGKRISYPLLHEWALREGEE [P6K] belongs 1.55; to KISGGCRISYPLLHEWALREGEE [P6C], 2.05.
On the same count and under the same terms, for KISGGARISYPLLHEWALREGEE [P6A] the value was 2.25; for KISGGPRISYPLLHEWALREGFE [E22F], 2.75.
Take KISGGPRISYPLLHEWALREGME [E22M]: the protein stability index was found to be 2.19.
On to KISGGPRISYPLLHEWALREGHE [E22H], for which the protein stability index was 2.49.
For the variant KISGGPRISYPLLHEWALREGQE [E22Q], the protein stability index was 3.01.
Turning to KISGGPRISYPLLHEWALREGCE [E22C], the protein stability index was 1.88.
As to KISGGPRISYPLLHEWALREGYE [E22Y], the protein stability index is 2.29.
For the variant KISGGPRISYPLLHEWALREGSE [E22S], the protein stability index turned out to be 2.12.
With KISGGPRISYPLLHEWALREGWE [E22W], the protein stability index is 1.87.
The same measure, in the same setting: to KIMGGPRISYPLLHEWALREGEE [S3M] belongs 2.63; to KISGGPRISYSLLHEWALREGEE [P11S], 2.66; to KISGGPRISYLLLHEWALREGEE [P11L], 2.3.
For KISGGPRISYILLHEWALREGEE [P11I], the protein stability index is 2.41.
Consider KISGGPRISYMLLHEWALREGEE [P11M], for which the protein stability index came out at 2.61.
With KISGGPRISYVLLHEWALREGEE [P11V], the protein stability index stood at 2.1.
Still for that read-out and setting: to KISGGPRISYPLLHEWPLREGEE [A17P] belongs 1.02.
As to KISGGPRISYPLLHEWELREGEE [A17E], the protein stability index was 3.55.
On to KISGGPRILYPLLHEWALREGEE [S9L], for which the protein stability index was 3.34.
Consider KISGGPRICYPLLHEWALREGEE [S9C], for which the protein stability index was 3.18.
Turning to KISGGPRISYPLLHESALREGEE [W16S], the protein stability index worked out at 2.33.
For the variant KISGGPRISYPLLHEHALREGEE [W16H], the protein stability index is 2.26.
KISGGPRISYPLLHECALREGEE [W16C]: the protein stability index was 2.94.
Turning to KISGGPRISYPLLHEYALREGEE [W16Y], the protein stability index amounted to 4.84.
For KISGGPRISYPLLHEFALREGEE [W16F], the protein stability index was found to be 2.74.
For the variant KISGGPRISYPLLHELALREGEE [W16L], the protein stability index was 4.59.
In the case of KISGGPRISYPLLHEWALREGEW [E23W], the protein stability index was determined as 1.94.
As to KISGGPRISYPLLHEWALREGEG [E23G], the protein stability index worked out at 2.41.
Take KISGGPRISYPLLHEWALREGEN [E23N]: the protein stability index is 2.73.
On the same count and under the same terms, to KISGGPRISYPLLHEWALREGEI [E23I] belongs 1.74.
As to KISGGPRISYPLLHEWALREGEF [E23F], the protein stability index is 2.43.
On to KISGGPRISYPLLHEWALREGEQ [E23Q], for which the protein stability index is 2.48.
Turning to KISGGPRISYPLLHEWALREGED [E23D], the protein stability index is 3.38.
As for KISGGPRISYPLLHEWALREGEP [E23P], the protein stability index worked out at 1.89.
As for KISGGPRCSYPLLHEWALREGEE [I8C], the protein stability index amounted to 2.79.
On the same count and under the same terms, for KISGGPRGSYPLLHEWALREGEE [I8G] the value was 3.28; for KISGGPRISYPFLHEWALREGEE [L12F], 3.78; for KISGGPRISYPALHEWALREGEE [L12A], 4.05.
For KPSGGPRISYPLLHEWALREGEE [I2P], the protein stability index stood at 3.29.
Turning to KISGGPRISYPLLHEWALTEGEE [R19T], the protein stability index came to 3.74.
Consider KISGGPRISYPLLHEWALGEGEE [R19G], for which the protein stability index amounted to 2.67.
With KISGGPRISYPLLHEWALLEGEE [R19L], the protein stability index was determined as 3.32.
KISGGPRISYPLLHEWALFEGEE [R19F]: the protein stability index stood at 2.64.
Same read-out and setting: to KISGGPRISYPLLHEWAKREGEE [L18K] belongs 2.72; to KISGGPRISYPLLHEWAQREGEE [L18Q], 1.63; to KISGGPRISYPLLHEWAIREGEE [L18I], 2.98.
In the case of KISGGPRISYPLLHEWASREGEE [L18S], the protein stability index is 2.31.
Same read-out and setting: to KISGGPRISYPLLHEWALREDEE [G21D] belongs 4.14; to KISGGPRISYPLLHEWALREKEE [G21K], 3.31.
Same read-out and setting: for KISGGPRISQPLLHEWALREGEE [Y10Q] the value was 3.78; for KISGAPRISYPLLHEWALREGEE [G5A], 2.31; for KISGKPRISYPLLHEWALREGEE [G5K], 2.48.
The same measure, in the same setting: to KISGHPRISYPLLHEWALREGEE [G5H] belongs 1.73.
In the case of WISGGPRISYPLLHEWALREGEE [K1W], the protein stability index was determined as 2.14.
DISGGPRISYPLLHEWALREGEE [K1D]: the protein stability index came out at 3.3.
With NISGGPRISYPLLHEWALREGEE [K1N], the protein stability index turned out to be 2.62.
Consider KISTGPRISYPLLHEWALREGEE [G4T], for which the protein stability index is 4.54.
In the case of KISPGPRISYPLLHEWALREGEE [G4P], the protein stability index was 5.66.
Turning to KISWGPRISYPLLHEWALREGEE [G4W], the protein stability index was determined as 2.78.
Consider KISCGPRISYPLLHEWALREGEE [G4C], for which the protein stability index came out at 3.34.
Take KISGGPRISYPLLHEWALRNGEE [E20N]: the protein stability index was 2.34.
Turning to KISGGPRISYPLLHEWALRPGEE [E20P], the protein stability index worked out at 2.36.
For the variant KISGGPRISYPLLHEWALRVGEE [E20V], the protein stability index came out at 3.06.
For KISGGPRISYPLLVEWALREGEE [H14V], the protein stability index worked out at 3.6.
Turning to KISGGPRISYPLLPEWALREGEE [H14P], the protein stability index amounted to 3.11.

Variants of B2 are the subject of the next data set. The data set is described as above. The note with it: c terminus: a fixed tail appended.
With SFMPLVIKVTSATSVNLGIWTADL [L20W], the protein stability index was 3.1.
For the variant SFMPLVIKVTSATSVNLGIVTADL [L20V], the protein stability index is 3.65.
On the same count and under the same terms, to SFMPLVIKVTSATSVNLGICTADL [L20C] belongs 2.67; to SFMPLVIKVTSATSVNLGIATADL [L20A], 3.33.
On to SFMPLVIKVTSATSVNLGIETADL [L20E], for which the protein stability index is 2.87.
Regarding SFMPLVIKVTSATSVNLGIMTADL [L20M], the protein stability index amounted to 2.92.
Same read-out and setting: to SFMPLVIKVTSATSVNLGIGTADL [L20G] belongs 2.2; to SFMPLVIKVTSATSVNLGIHTADL [L20H], 3.07; to SFMPLVIKVTSATSVNLGIFTADL [L20F], 3.49.
Turning to SFMPLVIKVTSATSVNLGIDTADL [L20D], the protein stability index was 1.59.
As to SFMPLVIKVTSATSVNLGINTADL [L20N], the protein stability index is 1.97.
For the variant SFMPLVIKVTSATSVNLGIITADL [L20I], the protein stability index turned out to be 3.65.
Regarding SFMPLVIKVTSATSVNLGISTADL [L20S], the protein stability index was found to be 2.8.
In the case of SFMPLVIKVTSATSVNLGITTADL [L20T], the protein stability index is 2.55.
Consider SFMPLVIKVTSATSVNLGIQTADL [L20Q], for which the protein stability index worked out at 3.08.
On to SFMPLVIKVTSATSVNLGIPTADL [L20P], for which the protein stability index was 2.38.
Take SFMPLVIKVTSATSVNLGIKTADL [L20K]: the protein stability index came out at 1.93.
In the case of SFMPLVIKVTSATSVNLGIYTADL [L20Y], the protein stability index amounted to 3.69.
Take SFMPLVIKVTSATSVNLGILTRDL [A22R]: the protein stability index amounted to 2.35.
Consider SFMPLVIKVTSATSVNLGILTIDL [A22I], for which the protein stability index came to 4.
As for SFMPLVIKVTSATSVNLGILTPDL [A22P], the protein stability index turned out to be 3.07.
For SFMPLVIKVTSATSVNLGILTHDL [A22H], the protein stability index came out at 3.34.
On to SFMPLVIKVTSATSVNLGILTVDL [A22V], for which the protein stability index was found to be 3.18.
